Assay results: the supplement of paper PMC9170038

System: MS2 coat protein
Assay: apparent KD of MS2 coat protein; designed switch direction (-1 OFF switch, 1 ON switch): 1; higher = weaker reporter binding
Outline: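 Stalled E. coli RNA polymerase transcribed designed RNA switches on Illumina chips, which were then titrated with SNAP-549-labelled MS2 coat protein, doubling from 0.7 or 1.5 nM to 3 µM. Steps lasted from 0.8–1.5 h at the lowest concentration to 10–20 min at the highest. The apparent KD is each design's median over clusters of curve-fitted normalised fluorescence.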

[1] = Eterna round: R95, input ligand: FMN 200 uM
[2] = Eterna round: R95, input ligand: microRNA oligo, concentration not stated
[3] = Eterna round: R95, input ligand: none
[4] = input ligand: microRNA oligo, concentration not stated

| Sequence | apparent KD of MS2 coat protein [1] [nM] | apparent KD of MS2 coat protein [2] [nM] | apparent KD of MS2 coat protein [3] [nM] | apparent KD of MS2 coat protein (input ligand: FMN 200 uM) [nM] | apparent KD of MS2 coat protein [4] [nM] | apparent KD of MS2 coat protein (input ligand: none) [nM] |
| --- | --- | --- | --- | --- | --- | --- |
| GGAGCCAGCACCGAGGAUAUUCAUAUUAAAACAUGAGGAUCACCCAUGUAGGCCAGAAGGCCUUGGGAGAAGGCGGAUUGGCUCG [Xeonanis - 10] (puzzle: Same State 2) | 35.3 | 327 | 496 | – | – | – |
| UGGCUGGUGCUAGGAUAUGCAUGAGGCCUCCUCGUAGAAGGAGCACGACAUGAGGAUCACCCAUGUAGCCGUCCGUAGACGGCU [salish99_SSNG1_r04_011] (Eterna round: R96, puzzle: Same State NG 1) | – | – | – | 62.7 | 50.1 | 63.3 |
| UGGUAACAUGAGGAUCACCCAUGUCAAGAGAAUCAAGGAUAUGGUAAGUAAUAAGAGAAUCUAGAAGGUGAAGUUG [Altered State 1-25 - Jieux - Same State 1] (puzzle: Same State 1) | – | 73.3 | – | – | – | – |
| GUUACAUGAGGAUCACCCAUGUAUGUGUGGGAGUAAGUGUCUUAGGAUAUCUAUGAUUUAAUCUAAGAGAAGGAAGAUUGUUGU [JMF's solution 82] (Eterna round: R96, puzzle: Same State NG 3) | – | – | – | 114 | 76.8 | 95.3 |
| UGUUGUAUUACAGGAUAUCUAGUAUUUUUAUUGAGAGAAGGGUAUUCACAUGAGGAUCACCCAUGUAUAUACGAGGAAGUUGUG [JMF's solution 55] (Eterna round: R96, puzzle: Same State NG 1) | – | – | – | – | 34.8 | – |
| GUGGUCAGACAUGAGGAUCACCCAUGUGGAAUAAAUAACGGUGAGGAUAUCGAAUAUAGGAUAUACGAGAAGGCAUGAUUGGUG (Eterna round: R96, puzzle: Same State NG 3) | – | – | – | 165 | 93.3 | 124 |
| AACAAAUACACAGGAUAUACAGCGGCAGCCACUGUAGAAGGGUGGGCGGGUUCCAACAUGAGGAUCACCCAUGUACCCAAUAAA [Gerace] (Eterna round: R96, puzzle: Same State NG 1) | – | – | – | 161 | 234 | 699 |
| AGUUGUGGAAAACUAUAGCAAAAGCAUGUACAUGAGGAUCACCCAUGUCAUGUACAAGCUUUUUGCUCGUCUUAUGG [ak 3 mod of one Eli's designs.] (puzzle: Sensor for hsa-mir-208a) | 25 | 13.9 | 50.3 | – | – | – |
| ACAUGAGACUCAGGAUAUGGUGUACCUACAUGUGACAUGAGGAUCACCCAUGUGGUAAGUAUGACUCAGAAGGGAGAGAUAUGU [Equivalance 76 - Jieux - Same State NG 2] (Eterna round: R96, puzzle: Same State NG 2) | – | – | – | 37.4 | 116 | 171 |
| ACAAGCUUUUUAGGAGAGAAAGGUGGGAAACAUGAGGAUCACCCAUGUAUGGUAGUGAAUAGUGGAACUCGUCUUAU [JR_SHM208A_Sub081] (puzzle: Sensor for hsa-mir-208a) | 400 | 104 | 462 | – | – | – |
| GUAGCAUACCGAGGAUAUUCAUAUUAUAAACAUGAGGAUCACCCAUGUGGCCGAUUACGGCCUUGGGAGAAGGCGGAAUGCUAC [Xeonanis - 20 Mod17] (Eterna round: R96, puzzle: Same State NG 2) | – | – | – | 44.6 | 641 | 909 |
| GCUACGGACGUAGGAUAUGUAGGAUAUGGUGAGAGCUAAGCUUGGAAGUCACUUCAACCAGAAGGACAGAAGGACGCCGUGAGG [pwkr ssNG2 2FMN + F9.18] (Eterna round: R96, puzzle: Same State NG 2) | – | – | – | 241 | 13.4 | 52.2 |
| GGUGCAAUAAACGCCUACAUGAGGAUCACCCAUGUAUGUAGGCAGGAUAUCGUAUGCAAAGCAUACGAGAAGGGCUAUAGUACC [Mat - Same State NG 3 - JL Mod - D45] (Eterna round: R96, puzzle: Same State NG 3) | – | – | – | 57.1 | 124 | 146 |
| UUAAUUAAUUAAUUAUACAUGAGGAUCACCCAUGUAAGUGAUCAGGAUAUCAGCUCGUUUAGAGCUGAGAAGGGAUACAUGUAA [SSNG3/13-A3] (Eterna round: R96, puzzle: Same State NG 3) | – | – | – | 111 | 139 | 214 |
| UGCUAUUGUAUAUUGGUGCAAGCUUUUUGACAUGAGGAUCACCCAUGUACUCGUCAUUAGCGCAGUCCGUAGACUGC (puzzle: Sensor for hsa-mir-208a) | 74.2 | 15.7 | 79 | – | – | – |
| UUAAGCAGCGGGCAGGAUAUGUAUUAAAAUACAUGAGGAUCACCCAUGUGCAGGUGUAACACCUGACAGAAGGGCCAAUCGGUGC [Soteed - 9] (puzzle: Same State 2) | 36.3 | 197 | 329 | – | – | – |

| Sequence | apparent KD of MS2 coat protein [1] [nM] | apparent KD of MS2 coat protein [2] [nM] | apparent KD of MS2 coat protein [3] [nM] | apparent KD of MS2 coat protein (input ligand: FMN 200 uM) [nM] | apparent KD of MS2 coat protein [4] [nM] | apparent KD of MS2 coat protein (input ligand: none) [nM] |
| --- | --- | --- | --- | --- | --- | --- |
| CGUCCGGCCUGUGCUGGCCGGUGGCUUGUACAUGAGGAUCACCCAUGUUCUUGUGCUGGCUUUUUGCUCGUCGUGUG [salish99_mir208a_r3_023] (puzzle: Sensor for hsa-mir-208a) | 32.6 | 19.8 | 37.9 | – | – | – |
| AUUUUAAAACAUGAGGAUCACCCAUGUUACAAGCUUUUUUUUUUUUUUUUUUUUUGGUGAUCCUCAGCUCGUCUUAU [lrlee 1] (puzzle: Sensor for hsa-mir-208a version 2) | 1.51 | 5.16 | 0.902 | – | – | – |
| UUAAUAAUGUUAGGAUAUACAUGAGGAAUCCUCGUAGAAGGAACAUGACAUGAGGAUCACCCAUGUAGCGCUCGAAAGAGCGCA [Mat - Same State NG 1 - JL mod - D48] (Eterna round: R96, puzzle: Same State NG 1) | – | – | – | 25.6 | 16.3 | 417 |
| AGUCCAGCCUGAGCUGGACAAAAGCAUGUACAUGAGGAUCACCCAUGUUCAUGUACAAGCUUUUUGCUCGUCUUACG [salish99_208a_r3_078] (puzzle: Sensor for hsa-mir-208a) | 673 | 17.1 | 638 | – | – | – |
| GGAGCCGGCCUAGGAUAUUUCAUUUAAAAACAUGAGGAUCACCCAUGUAGGCCAGAAGGCCUUGGGAAGAAGGAGGUCGGCUCC [Loop Effect - U24,U25] (Eterna round: R96, puzzle: Same State NG 2) | – | – | – | 11.2 | 22.7 | 44.2 |
| UGGCUCAGACGAGGAUAUGAUCAUGGCGCUUCGGCGCAUACAUGAGGAUCACCCAUGUAAAGUGAUCAGAAGGUGUCUGAGCCU [SSNG2/7-B3] (Eterna round: R96, puzzle: Same State NG 2) | – | – | – | 11.5 | 12.4 | 14.4 |
| AUAAGUUUGAUGCUCGUCUCUUCGUACAGACAUGAGGAUCACCCAUGUAGUCGGGAAGUAGCCCGGCCAGUAUGACC [Usraisqu] (Eterna round: R96, puzzle: Sensor for hsa-mir-208a) | – | – | – | 285 | 38.2 | 248 |
| CUCAAAACAAGUUGCAGUGUUCGUCUUUAACAUGAGGAUCACCCAUGUAAUAGCCCAGUAGAAGCGCUCGGGCCACC [Ceedbeen] (puzzle: Sensor for hsa-mir-208a) | 34.5 | 26.4 | 31.9 | – | – | – |
| UUGUUUCGUCAUUAACAUGAGGAUCACCCAUGUAUCGUCUCAAAGGAUAUAUAUGCUUGUUUGCUAUAGAAGGUUGAUUGUUGU [JR_SSNG3_Sub093] (Eterna round: R96, puzzle: Same State NG 3) | – | – | – | – | 91.6 | – |
| AGCUAUUAAUCAGGAUAUAGUGACAUGAGGAUCACCCAUGUAUUGAUGAUUAAAUGUGGUCGCCGCUAGAAGGGAUUACUAACA [SameState NG2 #46] (Eterna round: R96, puzzle: Same State NG 2) | – | – | – | 35.2 | 23.2 | 30.7 |
| UGUUGUAUUACAGGAUAUCUAGUAUUUUGAUUUAGAGAAGGGUAUUCACAUGAGGAUCACCCAUGUAUAUACGAGGAAGUUGUG [JMF's solution 44] (Eterna round: R96, puzzle: Same State NG 1) | – | – | – | – | 44 | – |
| UAAUGUUAGCGAGGAUAUCGUUUAUUGAAGUUACGAGAAGGCGCUCUUCUUACAUGAGGAUCACCCAUGUCUGUUUUGCAUGAU [JR_SSNG1_Sub068] (Eterna round: R96, puzzle: Same State NG 1) | – | – | – | – | 50 | – |
| AGCUAUCGAAAACGAUAGCAAAAGCAUGUACAUGAGGAUCACCCAUGUCAUGUACAAGCUUUUUGCUCGUCUUGAAA [Zipper 23 - 9] (puzzle: Sensor for hsa-mir-208a) | 132 | 13 | 1390 | – | – | – |
| UGUUGUAUUACAGGAUAUCUAUUAUUUUAAUUUAGAGAAGGGUAUUCACAUGAGGAUCACCCAUGUAUAUACGAGGAAGUUGUG [JMF's solution 21] (Eterna round: R96, puzzle: Same State NG 1) | – | – | – | – | 38.4 | – |
| ACAUGAGACGGAGGAUAUUUUGUACCUACAUGUGACAUGAGGAUCACCCAUGUGGUAAGUAUGAGAAAGAAGGCCGAGAUAUGU [Equivalence 19 - Jieux - Same State NG 2] (Eterna round: R96, puzzle: Same State NG 2) | – | – | – | 14.2 | 17.7 | 29.6 |
